From US20180037631A1 (Bristol-Myers Squibb, published 2018)
Numbering of substitutions follows the chain as printed.

B1: E64 (designed binder)
10Fn3 domain: MGVSDVPRDLEVVAATPTSLLISWDSGNGTYQYYRITYGETGGNSPVQEFTVPYRVYTATISGLKPGVDYTITVYAVTDYYNPATHEYTYELRPISINYRTEIDKPSQ
B2: E63 (designed binder)
10Fn3 domain: MGVSDVPRDLEVVAATPTSLLISWDTSGASYQYYRITYGETGGNSPVQEFTVPYSVYTATISGLKPGVDYTITVYAVTDYYDPDSHYYNYNMVPISINYRTEIDKPSQ
B3: E62 (designed binder)
10Fn3 domain: MGVSDVPRDLEVVAATPTSLLISWCLDGQLYQYYRITYGETGGNSPVQEFTVPGSIVTATISGLKPGVDYTITVYAVTDWYNLATHEYNYRVTPISINYRTEIDKPSQ
B4: E65 (designed binder)
10Fn3 domain: MGVSDVPRDLEVVATTPTSLLISWRPTSQVYQYYRITYGETGGNSPVQEFTVPYNVYTATISGLKPGVDYTITVYAVTDFFNYATHEYIYHTIPISINYRTEIDKPSQ
B5: E60 (designed binder)
10Fn3 domain: MGVSDVPRDLEVVAATPTSLLISWLQPLWRYQYYRITYGETGGNSPVQEFTVPGGLDTATISGLKPGVDYTITVYAVTDYKPHVDGPHAYHEYPISINYRTEIDKPSQ
B6: E68 (designed binder)
10Fn3 domain: MGVSDVPRDLEVVAATPTSLLISWKTEPGRHQYYRITYGETGGNSPVQEFTVPGGVRTATISGLKPGVDYTITVYAVTDWYNLVSHEYVYHTTPISINYRTEIDKPSQ
B7: E59 (designed binder)
10Fn3 domain: MGVSDVPRDLEVVAATPTSLLISWRARRLQYQYYRITYGETGGNSPVQEFTVPGMVTTATISGLKPGVDYTITVYAVTDFYNPATMEYTYQRTPISINYRTEIDKPSQ
B8: E66 (designed binder)
10Fn3 domain: MGVSDVPRDLEVVAATPTSLLISWKSYGSAYQYYRITYGETGGNSPVQEFTVPGDLQTATISGLKPGVDYTITVYAITDYYNPDTHEYKYHVSPISINYRTEIDKPSQ
B9: E67 (designed binder)
10Fn3 domain: MGVSDVPRDLEVVAATPTSLLISWSSVMGLYQYYRITYGETGGNSPVQEFTVPYDVYTATISGLKPGVDYTITVYAVTDYYNPSTYEYKYNTTPISINYRTEIDKPSQ
B10: E61 (designed binder)
10Fn3 domain: MGVSDVPRDLEVVAATPTSLLISWDASQGNYQYYRITYGETGGNSPVQEFTVPGAVKTATISGLKPGVDYTITVYAVTDFFNPATHEYIYHTTPISINYRTEIDKPSQ
B11: E33 (designed binder)
10Fn3 domain: MGVSDVPRDLEVVAATPTSLLISWASRKEVYQYYRITYGETGGNSPVQEFTVPGWLNTATISGLKPGVDYTITVYAVTDYMHVEYAEYPISINYRTEIDKPSQ
B12: E40 (designed binder)
10Fn3 domain: B1 10Fn3 domain with D25V, S26L, N28R, G29R, T30V, Y54G, R55A, Y81F, T89Q, R93T
B13: E44 (designed binder)
10Fn3 domain: MGVSDVPRDLEVVAATPTSLLISWDSEGPSYQYYRITYGETGGNSPVQEFTVPYAVYTATISGLKPGVDYTITVYAVTDYYNPRTHELFFQQYPISINYRTEIDKPSQ
B14: E37 (designed binder)
10Fn3 domain: MGVSDVPRDLEVVAATPTSLLISWERTSTHYQYYRITYGETGGNSPVQEFTVPGRVYTATISGLKPGVDYTITVYAVTDYYNPATHEYKYHQTPISINYRTEIDKPSQ
B15: E42 (designed binder)
10Fn3 domain: MGVSDVPRDLEVVAATPTSLLISWVVPNWMYQYYRITYGETGGNSPVQEFTVPGMLETATISGLKPGVDYTITVYAVTDYYNPTTYEYTYFTYPISINYRTEIDKPSQ
B16: E35 (designed binder)
10Fn3 domain: MGVSDVPRDLEVVAATPTSLLISWTPPGHQHQYYRITYGETGGNSPVQEFTVPGQVTTATISGLKPGVDYTITVYAVTDYYNPATHYYTYYTTPISINYRTEIDKPSQ
B17: E32 (designed binder)
10Fn3 domain: MGVSDVPRDLEVVAATPTSLLISWVSLVGFYQYYRITYGETGGNSPVQEFTVPGGVHTATISGLKPGVDYTITVYAVTDYKPHADGPHTYHESPISINYRTEIDKPSQ
B18: E34 (designed binder)
10Fn3 domain: B5 10Fn3 domain with Q26A, L28F, L56V, D57R, V84A, A89T, Y93S
B19: E39 (designed binder)
10Fn3 domain: B17 10Fn3 domain with V25Q, S26V, L27S, V28A, G29F, F30R, G55M, H57S, H91S, S93Y
B20: E43 (designed binder)
10Fn3 domain: B17 10Fn3 domain with V25S, S26G, L27G, V28F, G29M, F30R, G55Q, H57Y
B21: E36 (designed binder)
10Fn3 domain: B17 10Fn3 domain with V25E, L27G, V28S, G29R, F30T, P66T, S93Y
B22: E45 (designed binder)
10Fn3 domain: MGVSDVPRDLEVVAATPTSLLISWQVPRPMYQYYRITYGEKGGNSPVQEFTVPHDLRTATISGLKPGVDYTITVYAVTDYYDPTSNLYNYNQTPISINYRTEIDKPSQ
B23: E38 (designed binder)
10Fn3 domain: MGVSDVPRDLEVVAATPTSLLISWNARTDAYQYYRITYGETGGNSPVQEFTVPRDLETATISGLKPGVDYTITVYAVTDYKPHADGPHTYQESPISINYRTEIDKPSQ
B24: E41 (designed binder)
10Fn3 domain: MGVSDVPRDLEVVAATPTSLLISWTPPNSGHNYYRITYGETGGNSPVQEFTVPHDLTTATISGLKPGVDYTITVYAVTDYYNPNTYEYTYQFTPISINYRTEIDKPSQ

Biological target: T1, EGFR on the surface of human tumour cells (A431, H292) (human, UniProt P00533 25-1210)
Assay: cell-based or functional assay

Row | Binder | % inhibition of EGFR phosphorylation at 100 nM binder, cell-based assay [%]
1 | B1 | 78.2
2 | B2 | 76.2
3 | B3 | 78.9
4 | B4 | 80.7
5 | B5 | 100
6 | B6 | 78.5
7 | B7 | 76.3
8 | B8 | 75
9 | B9 | 75.3
10 | B10 | 79.8

Biological target: T1, EGFR on the surface of human tumour …
Assay: cell-based or functional assay
Remark: another data set of the same source

Row | Binder | % inhibition of EGFR phosphorylation at 100 nM binder, cell-based assay [%]
11 | B11 | 75.8
12 | B12 | 89.6
13 | B13 | 83.3
14 | B14 | 80.8
15 | B15 | 77.3
16 | B16 | 90.2
17 | B17 | 86
18 | B18 | 80.4
19 | B19 | 76.7
20 | B20 | 75
21 | B21 | 81.3
22 | B22 | 80.4
23 | B23 | 89.8
24 | B24 | 75.2
